# In patent US20110046068A1 (MEDICAL RESEARCH COUNCIL, published 2011):
# Non-standard residues stand in square brackets, D forms with d. No end group written: not given here.
# B1: 210 (peptide)
# peptide: YNWNGFG[dW]RF-NH2
# notes: kisspeptin-10 analogue; also called compound 210
# B2: 212 (peptide)
# peptide: YNWNG[dW]GLRF-NH2
# modifications: N-terminus assumed
# SMILES: CC(C)C[C@H](NC(=O)CNC(=O)[C@@H](Cc1c[nH]c2ccccc12)NC(=O)CNC(=O)[C@H](CC(N)=O)NC(=O)[C@H](Cc1c[nH]c2ccccc12)NC(=O)[C@H](CC(N)=O)NC(=O)[C@@H](N)Cc1ccc(O)cc1)C(=O)N[C@@H](CCCNC(=N)N)C(=O)N[C@@H](Cc1ccccc1)C(N)=O
# notes: kisspeptin-10 analogue; also called YNWNG[(D)-W]GLRF
# B3: 228 (peptide)
# peptide: Ac-YNWNGFG[dW]RF-NH2
# SMILES: CC(=O)N[C@@H](Cc1ccc(O)cc1)C(=O)N[C@@H](CC(N)=O)C(=O)N[C@@H](Cc1c[nH]c2ccccc12)C(=O)N[C@@H](CC(N)=O)C(=O)NCC(=O)N[C@@H](Cc1ccccc1)C(=O)NCC(=O)N[C@H](Cc1c[nH]c2ccccc12)C(=O)N[C@@H](CCCNC(=N)N)C(=O)N[C@@H](Cc1ccccc1)C(N)=O
# notes: kisspeptin-10 analogue; also called acYNWNGFG[(D)-W]RF
# B4: 229 (peptide)
# peptide: Ac-YNWN[dW]FG[dW]RF-NH2
# SMILES: CC(=O)N[C@@H](Cc1ccc(O)cc1)C(=O)N[C@@H](CC(N)=O)C(=O)N[C@@H](Cc1c[nH]c2ccccc12)C(=O)N[C@@H](CC(N)=O)C(=O)N[C@H](Cc1c[nH]c2ccccc12)C(=O)N[C@@H](Cc1ccccc1)C(=O)NCC(=O)N[C@H](Cc1c[nH]c2ccccc12)C(=O)N[C@@H](CCCNC(=N)N)C(=O)N[C@@H](Cc1ccccc1)C(N)=O
# notes: kisspeptin-10 analogue; also called acYNWN[(D)-W]FG[(D)-W]RF
# B5: 231 (peptide)
# peptide: Ac-YN[dW]NGFG[dW]RF-NH2
# SMILES: CC(=O)N[C@@H](Cc1ccc(O)cc1)C(=O)N[C@@H](CC(N)=O)C(=O)N[C@H](Cc1c[nH]c2ccccc12)C(=O)N[C@@H](CC(N)=O)C(=O)NCC(=O)N[C@@H](Cc1ccccc1)C(=O)NCC(=O)N[C@H](Cc1c[nH]c2ccccc12)C(=O)N[C@@H](CCCNC(=N)N)C(=O)N[C@@H](Cc1ccccc1)C(N)=O
# notes: kisspeptin-10 analogue; also called acYN[(D)-W]NGFG[(D)-W]RF
# B6: 188 (peptide)
# peptide: Ac-FGLRF-NH2
# notes: kisspeptin-10 analogue; also called Peptide 188; acFGLRF
# B7: 200 (peptide)
# peptide: Ac-FGL[dR]W-NH2
# modifications: not fully specified
# notes: kisspeptin-10 analogue; also called acFGL[(D)-R]W
# B8: 209 (peptide)
# peptide: YNWNGFG[dL]RF-NH2
# modifications: N-terminus assumed
# SMILES: CC(C)C[C@@H](NC(=O)CNC(=O)[C@H](Cc1ccccc1)NC(=O)CNC(=O)[C@H](CC(N)=O)NC(=O)[C@H](Cc1c[nH]c2ccccc12)NC(=O)[C@H](CC(N)=O)NC(=O)[C@@H](N)Cc1ccc(O)cc1)C(=O)N[C@@H](CCCNC(=N)N)C(=O)N[C@@H](Cc1ccccc1)C(N)=O
# notes: kisspeptin-10 analogue; also called Peptide 209; YNWNGFG[(D)-L]RF
# B9: 211 (peptide)
# peptide: YNWNG[dF]GLRF-NH2
# modifications: N-terminus assumed
# SMILES: CC(C)C[C@H](NC(=O)CNC(=O)[C@@H](Cc1ccccc1)NC(=O)CNC(=O)[C@H](CC(N)=O)NC(=O)[C@H](Cc1c[nH]c2ccccc12)NC(=O)[C@H](CC(N)=O)NC(=O)[C@@H](N)Cc1ccc(O)cc1)C(=O)N[C@@H](CCCNC(=N)N)C(=O)N[C@@H](Cc1ccccc1)C(N)=O
# notes: kisspeptin-10 analogue; also called YNWNG[(D)-F]GLRF
# B10: 186 (peptide)
# peptide: Ac-NSFGLRF-NH2
# notes: kisspeptin-10 analogue; also called Peptide 186; acNSFGLRF
# How the values were obtained:
# human gpr-54 receptor [1] = biological target: T1, human gpr-54 receptor (human, UniProt Q969F8 1-398); assay: cell-based or functional assay
# human gpr-54 receptor [2] = biological target: T1, human gpr-54 receptor; assay: whole-cell competition binding against 125I-kisspeptin, CHO cells stably transfected with GPR54 (CPM) [208]
# Procedure: (§1) Cell monolayers were placed on ice and exposed to 0.5 mls peptide (10 pM-1 uM); the cells were then incubated at 4° C. for 4 hr. After 4 hrs, cells were washed twice with ice cold Dulbecco's phosphate buffered saline (DPBS; with Calcium and Magnesium) and then 0.5 mls 0.1M Sodium Hydroxide (NaOH) were added to cells for 20 minutes, shaking to lyse cells. Lysates were transferred to plastic tubes and bound radioactivity counted on the gamma counter for 60 seconds.
# human gpr-54 receptor [3] = biological target: T1, human gpr-54 receptor; assay: cell-based or functional assay; remark: listed apart in the source
# human gpr-54 receptor [4] = biological target: T1, human gpr-54 receptor; assay: whole-cell competition binding against 125I-kisspeptin, CHO cells stably transfected with hGPR54 (CPM) [187]
# Procedure: as §1
# human gpr-54 receptor [5] = biological target: T1, human gpr-54 receptor; assay: cell-based or functional assay; remark: listed apart in the source
# human gpr-54 receptor [6] = biological target: T1, human gpr-54 receptor; assay: cell-based or functional assay; remark: listed apart in the source
# human gpr-54 receptor [7] = biological target: T1, human gpr-54 receptor; assay: whole-cell competition binding against 125I-kisspeptin, CHO cells stably transfected with GPR54 (CPM) [210]
# Procedure: as §1
# human gpr-54 receptor [8] = biological target: T1, human gpr-54 receptor; assay: whole-cell competition binding against 125I-kisspeptin, CHO cells stably transfected with GPR54 (CPM); upper curve, no lower plateau reached at -5 LogM [212]
# Procedure: as §1
# human gpr-54 receptor [9] = biological target: T1, human gpr-54 receptor; assay: cell-based or functional assay; remark: listed apart in the source
# human gpr-54 receptor [10] = biological target: T1, human gpr-54 receptor; assay: whole-cell competition binding against 125I-kisspeptin, CHO cells stably transfected with GPR54 (CPM); the fall of the curve lies between Total and -10 LogM [228]
# Procedure: as §1
# human gpr-54 receptor [11] = biological target: T1, human gpr-54 receptor; assay: cell-based or functional assay; remark: listed apart in the source
# human gpr-54 receptor [12] = biological target: T1, human gpr-54 receptor; assay: whole-cell competition binding against 125I-kisspeptin, CHO cells stably transfected with GPR54 (CPM) [229]
# Procedure: as §1
# human gpr-54 receptor [13] = biological target: T1, human gpr-54 receptor; assay: cell-based or functional assay; remark: listed apart in the source
# human gpr-54 receptor [14] = biological target: T1, human gpr-54 receptor; assay: whole-cell competition binding against 125I-kisspeptin, CHO cells stably transfected with GPR54 (CPM); the fall of the curve lies between Total and -10 LogM [231]
# Procedure: as §1
# human gpr-54 receptor [15] = biological target: T1, human gpr-54 receptor; assay: cell-based or functional assay; remark: listed apart in the source
# human gpr-54 receptor [16] = biological target: T1, human gpr-54 receptor; assay: whole-cell competition binding against 125I-kisspeptin, CHO cells stably transfected with GPR54 (CPM) [234]
# Procedure: as §1
# human gpr-54 receptor [17] = biological target: T1, human gpr-54 receptor; assay: cell-based or functional assay; remark: listed apart in the source
# human gpr-54 receptor [18] = biological target: T1, human gpr-54 receptor; assay: cell-based or functional assay; remark: listed apart in the source
# human gpr-54 receptor [19] = biological target: T1, human gpr-54 receptor; assay: competition of I125-labelled kisspeptin-10 on gpr-54 cells (CPM x 10^3); the legend calls the number an affinity
# human gpr-54 receptor [20] = biological target: T1, human gpr-54 receptor; assay: whole-cell competition binding against 125I-kisspeptin, CHO cells stably transfected with hGPR54 (CPM) [188]
# Procedure: as §1
# human gpr-54 receptor [21] = biological target: T1, human gpr-54 receptor; assay: cell-based or functional assay; remark: listed apart in the source
# human gpr-54 receptor [22] = biological target: T1, human gpr-54 receptor; assay: whole-cell competition binding against 125I-kisspeptin, CHO cells stably transfected with GPR54 (CPM); the fall of the curve lies between Total and -10 LogM [200]
# Procedure: as §1
# human gpr-54 receptor [23] = biological target: T1, human gpr-54 receptor; assay: cell-based or functional assay; remark: listed apart in the source
# human gpr-54 receptor [24] = biological target: T1, human gpr-54 receptor; assay: whole-cell competition binding against 125I-kisspeptin, CHO cells stably transfected with GPR54 (CPM); the curve falls between Total and -9 LogM [209]
# Procedure: as §1
# human gpr-54 receptor [25] = biological target: T1, human gpr-54 receptor; assay: whole-cell competition binding against 125I-kisspeptin, CHO cells stably transfected with human GPR54 (CPM); no lower plateau reached at -5 LogM [211]
# Procedure: as §1
# human gpr-54 receptor [26] = biological target: T1, human gpr-54 receptor; assay: whole-cell competition binding against 125I-kisspeptin, CHO cells stably transfected with hGPR54 (CPM); no lower plateau reached at -5 LogM [186]
# Procedure: as §1
# T1 sequence (Q969F8 whole entry): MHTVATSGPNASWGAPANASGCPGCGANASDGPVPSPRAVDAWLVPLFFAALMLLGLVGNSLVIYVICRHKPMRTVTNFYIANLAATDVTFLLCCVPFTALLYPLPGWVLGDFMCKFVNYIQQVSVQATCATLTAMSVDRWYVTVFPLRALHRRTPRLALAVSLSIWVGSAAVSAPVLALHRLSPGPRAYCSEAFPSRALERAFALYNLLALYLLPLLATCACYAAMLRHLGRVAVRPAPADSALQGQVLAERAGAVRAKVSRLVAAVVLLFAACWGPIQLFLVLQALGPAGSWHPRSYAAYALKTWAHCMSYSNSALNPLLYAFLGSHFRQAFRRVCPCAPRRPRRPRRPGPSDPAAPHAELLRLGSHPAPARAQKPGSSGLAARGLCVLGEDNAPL
binder,measurement,setting,value
YNWNGFGLRF-NH2 (kisspeptin-10 analogue) [208],"IP stimulation (IC50), peptide alone",human gpr-54 receptor [1],45.6 nM
same,Inhibition of IP stimulation by 10nM Agonist: % Inhibition of Max,human gpr-54 receptor [1],55%
same,Inhibition of IP stimulation by 10nM Agonist: IC50,human gpr-54 receptor [1],1000 nM
same,IC50,human gpr-54 receptor [2],70.3 nM
same,Antagonistic assay with kisspeptin-10: IC50 [208],human gpr-54 receptor [3],1000 nM
YNWNSFGLRW-NH2 (kisspeptin-10 analogue) [187],IC50,human gpr-54 receptor [4],211 nM
same,"IP dose response, peptide alone: EC50 (unlabelled number beside rising curve) [187]",human gpr-54 receptor [5],72.1 nM
same,"IP stimulation (IC50), peptide alone",human gpr-54 receptor [1],40 nM
same,Inhibition of IP stimulation by 10nM Agonist: % Inhibition of Max,human gpr-54 receptor [1],36%
B1,IP competition with 10nM kisspeptin-10: IC50 [210],human gpr-54 receptor [6],< 0.1 nM
same,IC50,human gpr-54 receptor [7],1300 nM
same,Inhibition of IP stimulation by 10nM Agonist: % Inhibition of Max,human gpr-54 receptor [1],64%
same,Inhibition of IP stimulation by 10nM Agonist: IC50,human gpr-54 receptor [1],< 0.1 nM
B2,IC50,human gpr-54 receptor [8],6330 nM
same,"IP stimulation (IC50), peptide alone",human gpr-54 receptor [1],300000 nM
same,Inhibition of IP stimulation by 10nM Agonist: % Inhibition of Max,human gpr-54 receptor [1],88%
same,Inhibition of IP stimulation by 10nM Agonist: IC50,human gpr-54 receptor [1],< 0.1 nM
same,IP competition with 10nM kisspeptin-10: IC50 [212],human gpr-54 receptor [9],< 0.1 nM
same,"IP dose response, peptide alone: EC50 (unlabelled number beside rising curve; rise only at -5 LogM) [212]",human gpr-54 receptor [9],0.000205 M
B3,IC50,human gpr-54 receptor [10],0.00655 nM
same,IP competition with 10nM kisspeptin-10: IC50 [228],human gpr-54 receptor [11],50 nM
same,Inhibition of IP stimulation by 10nM Agonist: % Inhibition of Max,human gpr-54 receptor [1],58%
same,Inhibition of IP stimulation by 10nM Agonist: IC50,human gpr-54 receptor [1],50 nM
B4,IC50,human gpr-54 receptor [12],1.17 nM
same,IP competition with 10nM kisspeptin-10: IC50 [229],human gpr-54 receptor [13],8000 nM
same,Inhibition of IP stimulation by 10nM Agonist: % Inhibition of Max,human gpr-54 receptor [1],68%
same,Inhibition of IP stimulation by 10nM Agonist: IC50,human gpr-54 receptor [1],8000 nM
B5,IC50,human gpr-54 receptor [14],0.000564 nM
same,IP competition with 10nM kisspeptin-10: IC50 [231],human gpr-54 receptor [15],0.1 nM
same,Inhibition of IP stimulation by 10nM Agonist: % Inhibition of Max,human gpr-54 receptor [1],55%
same,Inhibition of IP stimulation by 10nM Agonist: IC50,human gpr-54 receptor [1],0.1 nM
[dA]NWNGFG[dW]RF-NH2 [Peptide 234],IC50,human gpr-54 receptor [16],2.79 nM
same,IP competition with 10nM kisspeptin-10: IC50 [234],human gpr-54 receptor [17],70 nM
same,IC50 of inhibition of 10 nM kisspeptin-10 stimulation of IP,human gpr-54 receptor [18],7 nM
same,IC50 of inhibition of kisspeptin stimulation of IP,human gpr-54 receptor [18],< 10 nM
same,IC50,human gpr-54 receptor [19],2.8 nM
same,Inhibition of IP stimulation by 10nM Agonist: IC50,human gpr-54 receptor [1],70 nM
B6,IC50,human gpr-54 receptor [20],143 nM
same,"IP stimulation (IC50), peptide alone",human gpr-54 receptor [1],125 nM
same,Inhibition of IP stimulation by 10nM Agonist: % Inhibition of Max,human gpr-54 receptor [1],74%
same,IP competition with 10nM kisspeptin-10: IC50 [188],human gpr-54 receptor [21],< 0.1 nM
same,"IP dose response, peptide alone: EC50 (unlabelled number beside rising curve) [188]",human gpr-54 receptor [21],92.3 nM
B7,IC50,human gpr-54 receptor [22],0.00249 nM
same,IP competition with 10nM kisspeptin-10: IC50 [200],human gpr-54 receptor [23],300 nM
same,Inhibition of IP stimulation by 10nM Agonist: % Inhibition of Max,human gpr-54 receptor [1],63%
same,Inhibition of IP stimulation by 10nM Agonist: IC50,human gpr-54 receptor [1],300 nM
B8,IC50,human gpr-54 receptor [24],0.0157 nM
same,Inhibition of IP stimulation by 10nM Agonist: % Inhibition of Max,human gpr-54 receptor [1],81%
same,Inhibition of IP stimulation by 10nM Agonist: IC50,human gpr-54 receptor [1],100 nM
same,IP competition with 10nM kisspeptin-10: IC50 [209],human gpr-54 receptor [3],100 nM
B9,IP competition with 10nM kisspeptin-10: IC50 [211],human gpr-54 receptor [6],1000 nM
same,IC50,human gpr-54 receptor [25],4320 nM
same,"IP stimulation (IC50), peptide alone",human gpr-54 receptor [1],2570 nM
same,Inhibition of IP stimulation by 10nM Agonist: % Inhibition of Max,human gpr-54 receptor [1],73%
same,Inhibition of IP stimulation by 10nM Agonist: IC50,human gpr-54 receptor [1],1000 nM
B10,IP competition with 10nM kisspeptin-10: IC50 [186],human gpr-54 receptor [5],0.5 nM
same,"IP dose response, peptide alone: EC50 (unlabelled number beside rising curve) [186]",human gpr-54 receptor [5],592 nM
same,"IP stimulation (IC50), peptide alone",human gpr-54 receptor [1],150 nM
same,Inhibition of IP stimulation by 10nM Agonist: % Inhibition of Max,human gpr-54 receptor [1],70%
same,IC50,human gpr-54 receptor [26],1850 nM
